Data published in publication PMC11882444 (2025).

Target: LHC (LSD1-HDAC-CoREST complex) (Homo sapiens, UniProt O60341, UM171 and InsP6 present)
Test: dose-response titration of fluorescein-LHC

- Kd: 13 nM
B1: KBTBD4 (protein)
chain: MKGGNADSWQREKLASMESPEEPGASMDENYFVNYTFKDRSHSGRVAQGIMKLCLEEELFADVTISVEGREFQLHRLVLSAQSCFFRSMFTSNLKEAHNRVIVLQDVSESVFQLLVDYIYHGTVKLRAEELQEIYEVSDMYQLTSLFEECSRFLARTVQVGNCLQVMWLADRHSDPELYTAAKHCAKTHLAQLQNTEEFLHLPHRLLTDIISDGVPCSQNPTEAIEAWINFNKEEREAFAESLRTSLKEIGENVHIYLIGKESSRTHSLAVSLHCAEDDSISVSGQNSLCHQITAACKHGGDLYVVGGSIPRRMWKCNNATVDWEWCAPLPRDRLQHTLVSVPGKDAIYSLGGKTLQDTLSNAVIYYRVGDNVWTETTQLEVAVSGAAGANLNGIIYLLGGEENDLDFFTKPSRLIQCFDTETDKCHVKPYVLPFAGRMHAAVHKDLVFIVAEGDSLVCYNPLLDSFTRLCLPEAWSSAPSLWKIASCNGSIYVFRDRYKKGDANTYKLDPATSAVTVTRGIKVLLTNLQFVLA
